Broadly, the stoichiometry N is the number of molecules, sites or subunits per partner or assembly.

This data set concerns the molecule itself. Briefly: SEC + other: SDS-PAGE under non-reducing conditions; analytical gel filtration chromatography and SDS-PAGE without DTT or beta-mercaptoethanol; apparent molecular mass ca. 60,000; dimer. In general terms: In gel filtration, larger molecules generally elute earlier.

B1: Bacillus cereus Fnr, recombinant tag-less apo-form (natural protein, Bacillus cereus F4430/73, UniProt A4GFD9 1-230, looked up)
chain: MANSMTLSQDLKELLASVEYKMQIKKGSFIFQEGMEATELYIIHSGKVQISKLSADGQELTLRICSAYDIIGELTLFTDNAKYLLNSKCLEDVEVGVIKREALEKELLQKPALVFEFMKWISEHLRRMQTKFRDLVLHGKKGALYSTLIRMTNSYGILKENGILIDLPLTNQELANFCATSRESVNRMLNELKKQGTISIHKGKITIHDLQFLKCEIACEDCSASVCSID
notes: also called apoFnr; tag-less Fnr; source: E. coli BL21 CodonPlus(DE3)-RIL (pET101fnr), aerobically grown, purified (DEAE-cellulose, hydroxyapatite, Superdex 200)
As to B1, the “stoichiometry N” value came to 2.

The record behind these values is publication PMC3520743, “Bacillus cereus Fnr binds a [4Fe-4S] cluster and forms a ternary complex with ResD and PlcR” (BMC Microbiology, 2012).
